The series is described as follows: yeast display, Sf9 membrane polyspecificity reagent, FACS + sequencing; frameworks hold sequencing errors. Summed up: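 Galactose-induced (36–48 hours) yeast carrying a synthetic nanobody display library were exposed to 10% biotinylated, detergent-solubilized Sf9 membrane reagent at 4 °C for 1 hour. FACS followed streptavidin microbead enrichment, using low and high (top ~1%) gates for expression (anti-HA) and reagent binding (streptavidin). Colony PCR, MiSeq 2 × 250 sequencing and CDR-length filtering followed. Labels for polyreactivity reflect the gate of origin.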
Regarding “QVQLVESGGGLVQAGGSLRLSCAASGFILDYNAMGWYRQAPGKERELVATITGRGDRTYYADSVKGRFTISRDNAKNTVYLQMNSLKPEDTAVYYCAAGFDGSRHPGFDSWGQGTQVTVSS”, the “polyreactivity (PSR sort gate)” value was “low polyreactivity”.

Consider “QVQLVESGGGLVQAGGSLRLSCAASGFILDYYDMGWYRQAPGKERELVAGINYGGDSTYYADSVKGRFTISRDNAKNTVYLQMNSLKPEDTAVYYCAADLYFQYPEYDYWGQGTQVTVSS”, for which the “polyreactivity (PSR sort gate)” value was “low polyreactivity”.

Regarding “QVQLVESGGGLVQAGGSLRLSCAASGFILERYAMGWYRQAPGKERELVAAISSVGNTNYADSVKGRFTISRDNAKNTVYFQMNSLKPEDTAVYYCAAEGAFPIYDYWGQGTQVTVSS”, the “polyreactivity (PSR sort gate)” value was “low polyreactivity”.

For “QVQLVESGGGLVQAGGSLRLSCAASGFILGSNVMGWYRQAPGKERELVAAISYSGGSTYYADSVKGRFTISRDNAKNTVYLQMNSLKPEDTAVYYCARRLTREYDYWGQGTQVTVSS”, the “polyreactivity (PSR sort gate)” value is “low polyreactivity”.

“QVQLVESGGGLVQAGGSLRLSCAASGFILGYYAKGWSRQAPGKERELDAITSGDSTYYADSVKGRFTISRDTAKNTVYLQMNSLKPEDTAVYYCNAEASIERRYRGIIAVITRYDYWAQGTQVTVSS”: the “polyreactivity (PSR sort gate)” value is “high polyreactivity”.

Take “QVQLVESGGGLVQAGGSLRLSCAASGFILLDYAMGWYRQAPGKERELVAAISWSGARTYYADSVKGRFTISRDNAKNTVYLQMNSLKPEDTAVYYCAAKGQRGYWWGFDYWGQGTQVTVSS”: the “polyreactivity (PSR sort gate)” value is “low polyreactivity”.

As to “QVQLVESGGGLVQAGGSLRLSCAASGFILLDYAMRWYRQAPGKERELVAAISWSGARTYYADSVKGRFTISRDNAKNTVYLQMNSLKPEDTAVYYCATRYRWTPYDYWGQGTQVTVSS”, the “polyreactivity (PSR sort gate)” value is listed as “low polyreactivity”.

With “QVQLVESGGGLVQAGGSLRLSCAASGFILPTYAMGWYRQAPGKEREFVAAIRTSTGATYYADSVKGRFTISRDIAKNTVYLQMTSLKPEDNAVYYFPADAPWSEWLWADIVGYEYWGQGTQVTVSS”, the “polyreactivity (PSR sort gate)” value is recorded as “low polyreactivity”.

Consider “QVQLVESGGGLVQAGGSLRLSCAASGFILRSYGMAWYRKAPGKERELVAAITRGGSTYYADSVKGRFTISRDNAKNTVYLQMNSLKAEDTAVYYCAARTRYYSQQFDYWGQGTQVTVSS”, for which the “polyreactivity (PSR sort gate)” value is on record as “high polyreactivity”.

Turning to “QVQLVESGGGLVQAGGSLRLSCAASGFILRWYAMGWYRQAPGKERELVAAISWSGGSTYYADSVKGRFTISRDNAKNTVYLQMNSLKPEDTAVYYCNAVNYRNKYDYWGQGTQVTVSS”, the “polyreactivity (PSR sort gate)” value is reported as “high polyreactivity”.

In the case of “QVQLVESGGGLVQAGGSLRLSCAASGFILRYYAMGWYRQAPGKERELVAAISSGGGTYYADSVKGRFTISRDNAKNTVYLQMNSLKPEDTAVYYCAADYWGLWHWLYTDDDGDYWGQGTQVTVSS”, the “polyreactivity (PSR sort gate)” value is “high polyreactivity”.

Regarding “QVQLVESGGGLVQAGGSLRLSCAASGFILSGYAMGWYRQAPGKERELVAVISGGGRTYYADSVKGRFTISRDNAKNTVYLQMNSLKPEDTAVYYCARPRTRQGDYWGQGTQVTVSS”, the “polyreactivity (PSR sort gate)” value is listed as “high polyreactivity”.

Turning to “QVQLVESGGGLVQAGGSLRLSCAASGFILSPNTMGWYRQAPGKERELVAAISSDVSTYADSVKGRFTISRDNAKNTVYLQMNSLKPEDTAVYYCNADDFGYASYEYWGQGTQVTVSS”, the “polyreactivity (PSR sort gate)” value was “low polyreactivity”.

Turning to “QVQLVESGGGLVQAGGSLRLSCAASGFILSWYAMGWYRQAPGKERELVAGISRRGGSTYYADSVTGRFTISRDNAKNTVYLQMNSLKPEDTAVYYCNALYDDWSVSTGDYWGQGTQVTVSS”, the “polyreactivity (PSR sort gate)” value is reported as “high polyreactivity”.

In the case of “QVQLVESGGGLVQAGGSLRLSCAASGFILWPYAMGWYRQEPGKERELVAAITTGGSTNYADSVKGRFTISRDNAKNTVYLQMNSLKPEDTAVYYCAKGYYFGYYEFDYWGQGTQVTVSS”, the “polyreactivity (PSR sort gate)” value is on record as “high polyreactivity”.

Regarding “QVQLVESGGGLVQAGGSLRLSCAASGFILYYYAMGWYRQAPGIERELVAAISWSGDSTYYADSVKGRFTISRDNAKNTVYLQMNSLKPEDTAVYYCAATGQLTHRYYWGQGTQVTVSS”, the “polyreactivity (PSR sort gate)” value is “low polyreactivity”.

For “QVQLVESGGGLVQAGGSLRLSCAASGFIRYYAMGWYRNAHGKERELVAAITATGASTYYADSVKGRFTISRDNAKNTVYLQMNSLKPEDTAVYYCIVRLRISSGYWGQGTQVTVSS”, the “polyreactivity (PSR sort gate)” value is “high polyreactivity”.

Turning to “QVQLVESGGGLVQAGGSLRLSCAASGFISGKYAMGWNRQAPGKERELVATIRSGGSTNYADSVKGRFTISRDNAKNTVYLQMNSLKPEDTAVYYCAKRRGSRGVIYDYWGQGTQVTVSS”, the “polyreactivity (PSR sort gate)” value is “high polyreactivity”.

Regarding “QVQLVESGGGLVQAGGSLRLSCAASGFISGYYTMRWYRQAPGKERELVAVINSGGSTYYADSVKGRFTISRDNAKNTVYLQMNSLKPEDTAVYYCAKLGGKYSRYYYWGQGTQVTVSS”, the “polyreactivity (PSR sort gate)” value is “low polyreactivity”.

As for “QVQLVESGGGLVQAGGSLRLSCAASGFISNGYAMGWYRQAPGKEREFVASISSSGGSTYYADSVKGRFTISRDIAKNTVYLQMNSLKTEDTAVYYCNARYWWVIKVKLGYWGQGTQVTVSS”, the “polyreactivity (PSR sort gate)” value is reported as “low polyreactivity”.

As to “QVQLVESGGGLVQAGGSLRLSCAASGFISSENAMGWYRQAPGKERELVAAISSGGSTNYADSVKGRFTISRDNAKNTVYLQMNSIKREDTAVYYCAATLPGWYNEDDSWGQGTQVTVSS”, the “polyreactivity (PSR sort gate)” value was “low polyreactivity”.

Consider “QVQLVESGGGLVQAGGSLRLSCAASGFISYENAMGWYRQAPGKERELVAAISSGGSTNYADSVKGRFTISRDNAKNTVYFQMNSLKPEDTAVYYCAATLPGWYNEDDSWGQGTQVTVSS”, for which the “polyreactivity (PSR sort gate)” value is given as “low polyreactivity”.

For the sequence “QVQLVESGGGLVQAGGSLRLSCAASGFISYFYTMGWYRPAPGKERELVAAISNTGDRTYYADSVKGRFTISRDNAKNTVYLQMNSLKPEDTAVYYCNAVVRGTYWQSFDYWGQGTQVTVSS”, the “polyreactivity (PSR sort gate)” value was “high polyreactivity”.

“QVQLVESGGGLVQAGGSLRLSCAASGFIVHTNTMGWYIQAPGKERELVAAMSSGGRTNYADSVKGRFTISRDNAKNTVYLQMNSLKPEDTAVYYCAADWHSWRWGYYYWGQGTQVTVSS”: the “polyreactivity (PSR sort gate)” value was “low polyreactivity”.

“QVQLVESGGGLVQAGGSLRLSCAASGFIVKRYARGWYRQAPGKERELVAAITSSGGRTYYADSVKGRFTISRDTAKNTVYLQMNSLKPEDTAVYYCAKGWSTYYTKMNYWGQGTQVTVSS”: the “polyreactivity (PSR sort gate)” value was “high polyreactivity”.

On to “QVQLVESGGGLVQAGGSLRLSCAASGFIYGFYVMGWYRQAPGKERELVAAITTSGDSTYYADSVKGRFTISRDNAKNTVFLQMNSLKPEDTAVYYCAADNVHSEYEYWGQGTQVTVSS”, for which the “polyreactivity (PSR sort gate)” value is “high polyreactivity”.

“QVQLVESGGGLVQAGGSLRLSCAASGFIYGTYAMGWYRQAPGKEREFVAAITRSGSSTYYADSVKGRFTISRDNAKNTVYLLMNSLKPEDTAVYYCAADLTRGRFRYYYWGLGTQVTVSS”: the “polyreactivity (PSR sort gate)” value is recorded as “high polyreactivity”.

For “QVQLVESGGGLVQAGGSLRLSCAASGFIYHNAMGWYRQAPGKERELVARITWSGGSTSYADSVKGRFTISRDNAKNTVYLQMTSLKPEETAVYYCAARGVVYRYGASRGYWGQGTQVTVSS”, the “polyreactivity (PSR sort gate)” value is “high polyreactivity”.

For the sequence “QVQLVESGGGLVQAGGSLRLSCAASGFLFGWNAMGGYRQAPGKERELVAAISARGGSTSYADSVKGRFTISRDTAKNTVYLQMNSLKPEDTAVYYCSAKSAFPLDYWGQGTQVTVSS”, the “polyreactivity (PSR sort gate)” value was “high polyreactivity”.

As for “QVQLVESGGGLVQAGGSLRLSCAASGFLFVVYTMGWYRQAPGKERELVAAITSGGSTYYADSVKGRFTISRDNAKNTVYLQMNSLKPEDTAVYYCNALASRYPAYYYWGQGTQVTVSS”, the “polyreactivity (PSR sort gate)” value is given as “low polyreactivity”.

“QVQLVESGGGLVQAGGSLRLSCAASGFNFADNAMGWYRQAPGKEREFVAAISRSGGTTYYADSVKGRFTISRDNAKNTVYLQMNSLKPEDTAVYYCATRLTSYPDYDYWGQGTQVTLSS”: the “polyreactivity (PSR sort gate)” value is listed as “low polyreactivity”.

For the sequence “QVQLVESGGGLVQAGGSLRLSCAASGFNFASYAMGWYRQAPGKERELVAAISWRGGSTYYADSVKGRFTISRDNAKNTVYLQMNSLKPEDTAVYYCNAYVYVGTGRGYDTLDYWGQGTQVTLSS”, the “polyreactivity (PSR sort gate)” value was “low polyreactivity”.

Turning to “QVQLVESGGGLVQAGGSLRLSCAASGFNFDGNALGWYRPAPGKERELVAAIRSGGRTNYADSVKGRFTISRDNAKNTVYLQMNSLKPEDTAVYYCAARSIYPYYYRRDNRYYYWGQGTQVTVSS”, the “polyreactivity (PSR sort gate)” value is recorded as “high polyreactivity”.

Regarding “QVQLVESGGGLVQAGGSLRLSCAASGFNFGCYCMGWYIQAPGKERELVAAITWSGVRTYYADSVKGRFTISRDNAKNTVYLQMNSLKPEDTAVYYCAASGEGGYLENNEFDYWGQGTQVTVSS”, the “polyreactivity (PSR sort gate)” value is “low polyreactivity”.

“QVQLVESGGGLVQAGGSLRLSCAASGFNFGGYAMGWYRQAPGKERELVARITRSGGSTYYADSVKGRFTISRDNAKNTVYLQMNSLKPEDTAVYYCNADTPPNPYYYWGQGTQVTVSS”: the “polyreactivity (PSR sort gate)” value was “low polyreactivity”.

“QVQLVESGGGLVQAGGSLRLSCAASGFNFGINAMGWYRQAPGKEREWVAAINQSGDRTYYADSVKGRFTISRDNAKNTVYLQMNSLNPEDTEVYYCASLSTYRTWYGDWGQGTQVTVSS”: the “polyreactivity (PSR sort gate)” value is “high polyreactivity”.

Consider “QVQLVESGGGLVQAGGSLRLSCAASGFNFGWYAMGWYRQAPGKERELVAAISGRGGSTNYADSVKGRFTISRDNAKNTVYLQMNSLKPEDTAVYYCNAALSPWGNNYWGQGTQVSVSS”, for which the “polyreactivity (PSR sort gate)” value is reported as “high polyreactivity”.

In the case of “QVQLVESGGGLVQAGGSLRLSCAASGFNFSYNAMGWYRQAPGKERELTYADSVKGRFTISRDNAKNTVYLQMNSLKLEDTAVYYCAAGEYGRQYDGDYWGQGTQVTVSS”, the “polyreactivity (PSR sort gate)” value is listed as “low polyreactivity”.

For the sequence “QVQLVESGGGLVQAGGSLRLSCAASGFRLNAMGWYRQAPGKERELVAAITASGGSTYYADSVKGRFTISRDNAKNTVYLQMNSQKPEDTAVYYCARYHPVRGYNYWGQGTQVTVSS”, the “polyreactivity (PSR sort gate)” value is recorded as “high polyreactivity”.

Turning to “QVQLVESGGGLVQAGGSLRLSCAASGFSFDSNAMGWYRQAPGKERELVAVITSSGGRTYYADSVKGRFTISRDNAKNTVYLQMNSLKPEDTAVYYCAAAKKFFWYEYDYWGQGTQVSVSS”, the “polyreactivity (PSR sort gate)” value was “high polyreactivity”.

“QVQLVESGGGLVQAGGSLRLSCAASGFSFRYYAMGWYRQAPGKERELVAAISSGGNTRYADSVKGRFTISRDNAKNTVYLQMNSLKPEDTAVYYCARRPGAWKYVYTGDYWGQGTQVTVSS”: the “polyreactivity (PSR sort gate)” value is recorded as “high polyreactivity”.
